# Results reported in patent US20240218337A1.
# Changes are numbered by the printed parent chain.
# B1: example_3 (protein, part only; not given: constant regions, Gas6 trap, linker, not shown: a dimerising Fc or GST; small tags and cut ends)
# heavy, part: EVQLQESGPGLVKPSQTLSLTCTVSGYSITSDYWNWIRKPPGKGLEYMGYISYTGSTYYNPSLKSRITISRDTSKNQYSLKLSSVTAADTAVYYCARRGEWLSPFAYWGQGTLVTVSS
# light: DIQMTQSPSSLSASVGDRVTITCKSSQSLLYSSNQKNSLAWYQQKPGKAPKLLIYWASTRESGVPSRFSGSGSGTDFTLTISSLQPEDFATYYCQQYYTYPFTFGQGTKLEIK
# B2: example_5 (protein, part only; not given: constant regions, Gas6 trap, linker, not shown: a dimerising Fc or GST; small tags and cut ends)
# heavy, part: B1 heavy, part with N35D, K64R, E100G, A106V
# light: B1 light with S26R, Y31F
# B3: example_7 (protein, part only; not given: Fc, Gas6 trap, linkers, not shown: small tags and cut ends)
# chain, part: EVQLQESGPGLVKPSQTLSLTCTVSGYSITSDYWNWIRKPPGKGLEYMGYISYTGSTYYNPSLKSRITISRDTSKNQYSLKLSSVTAADTAVYYCARRGEWLSPFAYWGQGTLVTVSSDIQMTQSPSSLSASVGDRVTITCKSSQSLLYSSNQKNSLAWYQQKPGKAPKLLIYWASTRESGVPSRFSGSGSGTDFTLTISSLQPEDFATYYCQQYYTYPFTFGQGTKLEIK
# B4: example_8 (protein, part only; not given: Fc, Gas6 trap, linkers, not shown: small tags and cut ends)
# chain, part: B3 chain, part with N35D, K64R, E100G, A106V, S144R, Y149F
# Target: PD-L1 on PD-L1 aAPC/CHO-K1 cells (human) (UniProt Q9NZQ7)
# Assay: cell-based or functional assay
row,Molecule,"PD-L1/PD-1 blockade assay, EC50 (luciferase in PD-1 effector cells) [nM]"
1,B1,< 3
2,B2,< 3
3,B3,< 3
4,B4,< 3

# Target: human Gas6 recombinant protein (human) (UniProt Q14393)
# Assay: ELISA, plate-coated test molecule, serially diluted hGas6
# Chain of UniProt Q14393 (Q14393 49-678 limits assumed): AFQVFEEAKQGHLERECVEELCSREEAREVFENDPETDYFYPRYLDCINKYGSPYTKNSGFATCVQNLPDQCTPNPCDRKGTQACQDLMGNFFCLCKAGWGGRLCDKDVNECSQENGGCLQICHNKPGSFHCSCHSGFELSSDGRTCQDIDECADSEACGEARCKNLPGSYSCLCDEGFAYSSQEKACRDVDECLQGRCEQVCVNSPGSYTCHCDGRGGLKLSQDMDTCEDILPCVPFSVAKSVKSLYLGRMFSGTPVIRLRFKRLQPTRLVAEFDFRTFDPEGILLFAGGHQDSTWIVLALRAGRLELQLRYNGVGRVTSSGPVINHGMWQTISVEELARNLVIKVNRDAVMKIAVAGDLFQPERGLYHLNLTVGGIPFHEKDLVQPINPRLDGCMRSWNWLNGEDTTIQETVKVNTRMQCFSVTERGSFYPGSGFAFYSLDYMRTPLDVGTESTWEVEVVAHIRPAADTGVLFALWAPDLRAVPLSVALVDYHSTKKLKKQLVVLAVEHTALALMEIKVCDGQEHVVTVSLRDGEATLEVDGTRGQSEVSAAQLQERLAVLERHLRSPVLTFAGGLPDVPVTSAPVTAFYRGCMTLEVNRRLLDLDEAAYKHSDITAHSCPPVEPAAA
row,Molecule,EC50 [nM]
1,Axl-Fc (Fc fusion),< 3

# Target: Recombinant human PD-L1 protein (human) (UniProt Q9NZQ7)
# Assay: ELISA, plate-coated recombinant human PD-L1, anti-human IgG-HRP
row,Molecule,EC50 [nM]
1,B1,< 0.1
2,B2,< 0.1
3,B3,< 0.1
4,B4,< 0.1
